# Assay: yeast display, Sf9 membrane polyspecificity reagent, FACS + sequencing; frameworks hold sequencing errors
# How it was run: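 Sorting gates, low and high (top ~1%), were placed on anti-HA fluorescence to track expression and on streptavidin fluorescence to track reagent binding. A clone's polyreactivity label is taken from the gate it came out of. The reagent was 10% biotinylated, detergent-solubilized Sf9 membrane, applied for 1 hour at 4 °C to galactose-induced yeast display cells.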
row,Sequence,polyreactivity (PSR sort gate)
1,QDQLVESGGGLVQAGGSLRLSCAASGSIFYDKAMAWYRQAPGKEREFVASITNSGSTNYADSVKGRFTISRDNAKNTVYLQMNSLKAEDTAVYFCAAEVYVDYTGYSYFDYPYDYWGQGTHVTVSS,low polyreactivity
2,QVQLEESGGGLVQAGGSLRLSCAASGIIFSPYAMGWYIQAPWKERELVAAINFSTGRTYYADSVKGRFTISRDNAKNTVYLQMNSLKPEDTAVYYCAAGKYPYVFRGGYDYWGQGTQVTVSS,low polyreactivity
3,QVQLVESGGGLVQAGGSLRLSCAASGRTFGYYAMGWYRQAPGKERELVAAISWRTVSTHYADSVKGRFTISRDNAKNTVYLQMNSLKPEDTAVYYCAARWGKIRGFHLDYWGQGTQVTVSS,high polyreactivity
4,QVQLVESGGCLVQAGGSLRLSCAASGFIFGYYAMGWYRPPPGKESELVAAISWSGVSTYYADSVKGRFTISRDNAKNTVYLQMNSLKPEDTAVYYCAVGYVLTGVFQARFDYWGQGTQATVSS,high polyreactivity
5,QVQLVESGGGLVQAGGSLRLSCAASGRIFTRNAMGWYRQAPGKERELVAAIRWSGDSTYYADSVKGRFTISRDNAKNTVYLQMNSLKPEDTAVYYCAAYRQRSHRVGTKGHRVGYWGQVTQVTVSS,high polyreactivity
6,QLQLQESGGGLVQSGGSLRLSCAASGTISFTRDMGWYRQAPGKEREFVASIDRGASTYYADSVKGRFTISRDNAKNTVYLQMNSLKPEDTAVYYRAFIAPFYSSFAYWGQGTQVTVSS,high polyreactivity
7,QVQLVESGGGLVQAGGSLRLSCAASGFTFNRYAMGWYRQAPGKERELVAAISWSGTSTYYADSVKGRFTISRDNAKNTVYLQMNSLKPEDPAVYYCAAYPALTGGLPKSRGYYWGQGTQVTVSS,high polyreactivity
8,QVQLVESGGGLVQAGGSLRLSCAASGRTFVLYTMGWYRQAPGKERELVAAISGSGGRSYYADSVKGRFTISRDHAKNSVYLQMNSLKPEDTAVYYCAAYGQGLPLYGYWGQGTQVTVSS,high polyreactivity
9,QVQLVESGGGLVQAGGSLRLSCAASGRISYTYSAMGWYRQAPGKERELVAAITRRGGSTSYADSVKGRFTISRDNAKNTVYLQMNSLKPDDTAVYYCAAVGSFHIVDYWGQGTQVTVSS,high polyreactivity
10,QVQLVESGGGLVQAGGSLRLSCDASGSTFYSYTMGWSRQAPGKERELVATISWSGSSTYDADSVKGRFTISRDNAKNTVYLQMNSLTPEDTAVYYSAAVHYDKSAYWWWYNYWGQGTLVTVSS,low polyreactivity
11,QVQLVESGGGLVQAGGSLRLSCAASGRIFYLYAMGWYRQAPGTEREFVASITVSGSSTYYADSVKGRFTISRDNAKNTVYLQMNSLKPEDTAVYYCNTDAVRSYVWWGTSLYDYWGQGTQVTVSS,low polyreactivity
12,QVQLVESRGGLVQAGGSLRLSCAASGITFYVNDMGWYRQEPGTERELVAAISYRGGSTYYADSVKGRFTISRDNAKNTVYLQMNSLKPEDTAVYYCAADYNYWSPHRDDYWGQGTQVTVSS,low polyreactivity
13,QVQLVESGGGLVQAGGSLRLSCAASGSIISRNAMGWYRQAPGKEREFVAAITRSGGSTSYADSVKGRFTISRDNAKSTVYLQMNSLKPEDTAVYYCAAAQKYRKEFDSWGQGTQVTVSS,high polyreactivity
14,QVQLVESGGGLVQAGGSLRISCAASGLIFNFNALGWYRQAPGKERELVAAITRSGSTDYADSVKGRFTISRDNAKNTVYLQLNSLKPEDTAVYYCAAEFYLRRFKVTKRYWFDYWGQGTQVTVSS,low polyreactivity
15,QVQLVESGGGLVQAGGSLRLSCAASGSIFWYNAMGWYRQAPGKERELVARISSSGDSTYYADSVKGRFTISRDNAKNTVYLQINSLKPEDTAVYYCNVDYWSISESSWGYYTSYDYWGQGTQVTVSS,high polyreactivity
16,QVQLVESGGGLVQAGGSLRLSCAASGSIFGINAMGWYRQAPGKERELVAAISYSGGSTYYADTVKGRFTISRDNAKNTVYLQMNSLKPEDTAVYYCARRGKHVAGRYYYWGQVTQVTVSS,high polyreactivity
17,QVQLVESGGGLVQAGGSLRLSCAASGSIFGSYAMGWYRQAPGKERELVAAIRWRGGSTYYADSVKGRFTISRDNAKNTVYLQMNSLKPEDTAVYYCNAVTHYPVWVSGVGYDYWGQGTQVTVSS,high polyreactivity
18,QVKLVESGGGLVQAGGSLRLTCAASGRTFARYAMGWSRQEPGKERELVAAISRRGTSTYYADSVKGRFTISRDNAKNTVYLQMNSLKPEDTAVYYCAVDPYLGHYDYWGQGTQVTVSS,high polyreactivity
19,HVQLVESGRGLFQAGGSLRLSCAASGFIFQYYAMGWYRQAPGKERELVAAISFGGSTYYADSVKGRFTISRDNAKNTVYLQMNSLKPEDTAVYYCAGDYYSWYGYDYWGQCTQVTVSS,low polyreactivity
20,QVQLVESGGGLVQAGGRLRLSCAASGRTFGQNAMGWYRQAPGKERELVAVISSRGGSTYYADSVKGRFTISRDNAKNTVYLQMNSLKPEDTAVYYCAKARRKPGAVDYWGQGTQVTVSS,high polyreactivity
21,QVQLVESGGGLVQAGGSLRLSCAASGFTFSYYAMGWYRQAPGKERELVAAISWSGTAMYYADSVKGRFTISRDNAKNTVYLQMNSLKPEDTAVYYCAAGYSASRKVDYWGQGTQVTVSS,high polyreactivity
22,QVQLVESGGGLVQAGGSLRLSCAASGLIFGSYAMGWYRQAPGKEMELVAAISWSGGSTNYADSVKGRFTISRDNSKNTVDLQMNSLKPEDTAVYYCAARGYPLGIGRIKRNYWGQGTQVTVSS,high polyreactivity

row,Sequence,polyreactivity (PSR sort gate)
1,QVQLVESGGGLVQAGGSHRLSCSASGRIFGLYAMGWYRQAPGKERELVAAITSSTGSTYYADSVKGRFTISRDNAKNTVYLQMNSLKPEDTAVYYCAADLYSPSIYGYIYYTWLDYWGQGTQVTVSS,high polyreactivity
2,QVQLVESGGGLVQAGGSLRLSCAASGFTIWRYAMGWYRQAPWKARELVAAISRGGSTNYADSVKGRFTISRDNAKNTVYLQMNSLKPEDTAVYYCAASVQYRRLKKFYYWGQGTQVTVSS,high polyreactivity
3,QVQLVESGGGLVQAGGSLRLSCAASGRTFLLYAMGWYRQAPGKERELVAAITWGGGSTYYADSVKGRFTISRDNAKNTVYLQMNSLKPEDTAVYYCAADGSWHGYGYWGQGTQVTVSS,low polyreactivity
4,QVQLVESGGGLVQAGGSLRLSCAASGRIFRYYTMGWYRQAPGKERELVAAITWSGGSTYYADSVKGRFTISRDNAKNTVYLQMNSLKPEDTAVYYCAVVYSPSMDYWGQGTQVTVSS,high polyreactivity
5,QFHLVESGGGLVQAGGSLRLSCSASGLTFYQNSLGWSRQAPGKEMELVAAIRWGGGSTYYADSVKGRFTISRDNAKNTVYLQMNCLKPVDTAVYYCAAEYYGWPYDYWGQGTQVTVSS,high polyreactivity
6,QVQIVESGGGLVQAGGSLRLSFAASGSIFSYNSMGWYRQAPGRERELVAAITPGCTSYYADSVKGLFRISRDNAKNTVYIQMNSLTPEDTAVYYCAADGLSRDTLYPYDYWGQGSQVTVSS,low polyreactivity
7,QVQLVESGGGLVQAGGSLRLSCAASGSIFYHYAMGWYRQAPGKERELVAAISQSGGGTYYADSVKGRFTISRDNAKNTVYLQMNSLKPEDTAVYYCNRLSKQKQEFDYWGQGTQVTVSS,high polyreactivity
8,QVQLVESGGGLVQAGGSLRLSCAASGRTLSYYAMGWYRQAPGKEREFVAAINWSGGSTYYADSVKGRFTISRDNAKNTVYLQMISLKPEDTAVYYCAAYRPYSSSEGDYWGQGTQVTVSS,high polyreactivity
9,QVQLVESGGGLVQAGGSLRLSCAASGRTFFGYAMGWYRQAPGKERELVAAISSRGDSTYYADSVKGRFTISRDNAKNTVYLQMNSLKPEDTAVYYCNAPVYTAAGYRYGTVRYGYWGQGTQVTVSS,low polyreactivity
10,QVQLVESGGGLVQAGGSLRLSCAASGIIFWYYAMGWYRQAPGKDRELVARITTAGITNYADSVKGRFTISRDNAKNTVYLQMNSLKPEDTAVYYCAADTYWHYRGPGYDYWGQGTQVTVAS,low polyreactivity
11,QVQLVESGGGLVQAGGSLRLSCAASGRIFGRNTMGWYRQAPGKERELVAAITGTGTTYADSVKGRFTISRDNAKNTVYLQMNSLKPEDTAVYYCAARRSVYTWVSRYNYWGQGTQVTVSS,high polyreactivity
12,QVQLVESGGGLVQAGGSLRLSCAASGRIFPKYAMGWYRQAPGKERELVAAISRRGSSTYYADSVKGRFTISRDNAKNTVYLQMTSLKPEDTAVYYCATDARDGHDYWGQGTQVTVSS,high polyreactivity
13,QVQLVESGGGLVQAGGSLRLSCAASGFTFKYYSMGRYRQAPGKERELVAAISRGGRTNYADSVKGRFTISRDNAKNTVYLQMNSLKPEDTAVYYCAADGIYALFFTSGGIWFDYWGEGTQVTVSS,low polyreactivity
14,QVHHVESGGGLVQAGGSLRLSCAASGGTFRVYTMGWYRQAPAKVRELVAAITRNGGSTYYADSVKGRFTISRDNAKNSVYVQMNSLKPDDTAVYYCAARGGVPYSHAYDYWGQGTQVTVSS,low polyreactivity
15,QVQLVESGGGLVQAGGSLRLSCAASGRIFQYNAMGWYRQAPGKERELVAAITGGGSTYYADSVKGRFTISRDNAKNTVYLQMNSLKPEDTAVYYCNKAWSCSWLLTYGYWGQGTQVTVSS,high polyreactivity
16,QVHLVESGGVLVQAGGSLLLSCGACGSIFAQYTMGWYRNAPGKDRELVAAISSSGGSTYYADSVKGRFTISRDNANNTFYLQMNSLKAEDTAVYYCAARGAHYLRSGDHWGQGTQVNVSS,low polyreactivity
17,QVQLVESGGGLVQAGGSLRLSCAASGRIFYVNVMGWYRQAPGKERELVAAIYWSDGSTYYADSVKGRFTISRDNAKNTVYLQMNSLKPEDTAVYYCNRRGPYGYKAWAIGTIGDLDYWGQGTQVTVSS,low polyreactivity
18,QVQLVESGGGLVQAGGSLRLSCAASGITFNRYAMGWYRQAPGKERELVATISYRGGSTSYADSVKGRFTISRDNAKNTVYLQMNSLKPEDTAVYYCATDEGYVLFKYYSWGQGTQVTVSS,low polyreactivity
19,QVQLVESGGGLVQAGGRLRLTCAASARTIVLNPMGWYRQAPGKERELVAAISSGGSTNYADSVKGRFTISRDNAKNTVYLQMNSLNPEDTAVYYCAGQDVNLYSAYYYWGQGTQVTVSS,low polyreactivity
20,QVQLVESGGGLVQAGGSLRLSCAASGRIYEYMGWYRQAPGKERELVAAISWRGGRTYYADSVKGRFTISRDNAKNTVYLQMNSLKPEDTAVYYCAAKTTYRYGYWGQGTQVTVSS,high polyreactivity
21,QVHLVESGGGLVQAGGSLRLSCAASGSIIIRNAMGWYRQAPGKERELVATITRSGSTYYADSVKGRFTISRDNAKNTVYLQMNSLKPEDTAVYYFAADWPNLVEYYYWGQGTQVTVSS,high polyreactivity

# — the nanobody polyreactivity screen of Harvey et al. (2022)
